Reference: FireProtDB (doi:10.1016/j.bbapap.2014.10.010)

B1: Alanine--glyoxylate aminotransferase, P21549 (parent)
chain: MASHKLLVTPPKALLKPLSIPNQLLLGPGPSNLPPRIMAAGGLQMIGSMSKDMYQIMDEIKEGIQYVFQTRNPLTLVISGSGHCALEAALVNVLEPGDSFLVGANGIWGQRAVDIGERIGARVHPMTKDPGGHYTLQEVEEGLAQHKPVLLFLTHGESSTGVLQPLDGFGELCHRYKCLLLVDSVASLGGTPLYMDRQGIDILYSGSQKALNAPPGTSLISFSDKAKKKMYSRKTKPFSFYLDIKWLANFWGCDDQPRMYHHTIPVISLYSLRESLALIAEQGLENSWRQHREAAAYLHGRLQALGLQLFVKDPALRLPTVTTVAVPAGYDWRDIVSYVIDHFDIEIMGGLGPSTGKVLRIGLLGCNATRENVDRVTEALRAALQHCPKKKL

Variants of: B1
Conditions: Homo sapiens; pH 7.4; Thermal; DSC; Hepes 20 mM; NaCl 200 mM; transition: 2; reversible: No; structure 1H0C; whole UniProt chain shown

Variant: S48H
- Tm: 85.5 °C
- change of melting temperature, mutant - wild type (higher = more stable): 15.5 °C
- unfolding enthalpy (calorimetric): 520 kcal/mol

Variant: P11L I340M A295T
- Tm: 77.5 °C
- change of melting temperature, mutant - wild type (higher = more stable): 7.5 °C
- unfolding enthalpy (calorimetric): 500 kcal/mol

Variant: S50H
- Tm: 67.1 °C
- change of melting temperature, mutant - wild type (higher = more stable): -2.9 °C
- unfolding enthalpy (calorimetric): 357 kcal/mol

Variant: P11L
- Tm: 73.8 °C
- change of melting temperature, mutant - wild type (higher = more stable): 3.8 °C
- unfolding enthalpy (calorimetric): 399 kcal/mol

Variant: P11L I340M G170R
- Tm: 75.5 °C
- change of melting temperature, mutant - wild type (higher = more stable): 5.5 °C
- unfolding enthalpy (calorimetric): 459 kcal/mol

Variant: Q23R S48H D52E I340M
- Tm: 92 °C
- change of melting temperature, mutant - wild type (higher = more stable): 22 °C
- unfolding enthalpy (calorimetric): 609 kcal/mol

Variant: S48H I340M
- Tm: 88 °C
- change of melting temperature, mutant - wild type (higher = more stable): 18 °C
- unfolding enthalpy (calorimetric): 599 kcal/mol

Variant: V113A
- Tm: 83.2 °C
- change of melting temperature, mutant - wild type (higher = more stable): 13.2 °C
- unfolding enthalpy (calorimetric): 502 kcal/mol

Variant: S48H D52E V113A I340M
- Tm: 91 °C
- change of melting temperature, mutant - wild type (higher = more stable): 21 °C
- unfolding enthalpy (calorimetric): 613 kcal/mol

Variant: P11L I340M I244T
- Tm: 75.8 °C
- change of melting temperature, mutant - wild type (higher = more stable): 5.8 °C
- unfolding enthalpy (calorimetric): 402 kcal/mol

Variant: Q23R S48H D52E V113A I340M
- Tm: 93.7 °C
- change of melting temperature, mutant - wild type (higher = more stable): 23.7 °C
- unfolding enthalpy (calorimetric): 638 kcal/mol

Variant: Q23R
- Tm: 84.5 °C
- change of melting temperature, mutant - wild type (higher = more stable): 14.5 °C
- unfolding enthalpy (calorimetric): 475 kcal/mol

Variant: D52E I340M
- Tm: 86.9 °C
- change of melting temperature, mutant - wild type (higher = more stable): 16.9 °C
- unfolding enthalpy (calorimetric): 573 kcal/mol

Variant: I340M
- Tm: 84.1 °C
- change of melting temperature, mutant - wild type (higher = more stable): 14.1 °C
- unfolding enthalpy (calorimetric): 530 kcal/mol

Variant: P11L I340M
- Tm: 76.6 °C
- change of melting temperature, mutant - wild type (higher = more stable): 6.6 °C
- unfolding enthalpy (calorimetric): 375 kcal/mol

Variant: D52E
- Tm: 84.4 °C
- change of melting temperature, mutant - wild type (higher = more stable): 14.4 °C
- unfolding enthalpy (calorimetric): 544 kcal/mol

Variant: S48H D52E I340M
- Tm: 89.5 °C
- change of melting temperature, mutant - wild type (higher = more stable): 19.5 °C
- unfolding enthalpy (calorimetric): 315 kcal/mol

Variant: P11L I340M H83R
- Tm: 58.2 °C
- change of melting temperature, mutant - wild type (higher = more stable): -11.8 °C
- unfolding enthalpy (calorimetric): 235 kcal/mol
